Experimental findings from US7186539 are described below.

In series [1] the target is T1, Synthetic peptide substrate SEISY-EVEFRWKK
T1 chain: SEISYEVEFRWKK

For series [2], the target named is T2, Peptide substrate EIDL-MVLDWHDR
T2 chain: EIDLMVLDWHDR

The target of series [3] is T3, Synthetic peptide substrate GLTNIKTEEISEISY-EVEFRWKK
T3 chain: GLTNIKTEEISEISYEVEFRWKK

B1: CHO-BACE, recombinant human BACE construct Asp2-2LΔTM-His6 expressed in CHO cells (protein)
chain: TQHGIRLPLRSGLGGAPLGLRLPRETDEEPEEPGRRGSFVEMVDNLRGKSGQGYYVEMTVGSPPQTLNILVDTGSSNFAVGAAPHPFLHRYYQRQLSSTYRDLRKGVYVPYTQGKWEGELGTDLVSIPHGPNVTVRANIAAITESDKFFINGSNWEGILGLAYAEIARPDDSLEPFFDSLVKQTHVPNLFSLQLCGAGFPLNQSEVLASVGGSMIIGGIDHSLYTGSLWYTPIRREWYYEVIIVRVEINGQDLKMDCKEYNYDKSIVDSGTTNLRLPKKVFEAAVKSIKAASSTEKFPDGFWLGEQLVCWQAGTTPWNIFPVISLYLMGEVTNQSFRITILPQQYLRPVEDVATSQDDCYKFAISQSSTGTVMGAVIMEGFYVVFDRARKRIGFAVSACHVHDEFRTAAVEGPFVTLDMEDCGYNIPQTDESHHHHHH
As usually defined, the Km is the substrate concentration at which the rate is half of its maximum. Broadly, the kcat is the number of substrate molecules converted per active site and unit of time at saturation. Turning to B1, in series [1], the Km turned out to be 52 µM, the Vmax (µmol min^-1mg^-1) amounted to 0.294, the kcat stood at 0.233 s⁻¹ and the kcat/Km came to 0.0045 sec^-1µM^-1. In addition, in series [2], the Km amounted to 12 µM, the Vmax (µmol min^-1mg^-1) worked out at 0.0196, the kcat came out at 0.0155 s⁻¹ and the kcat/Km came out at 0.0013 sec^-1µM^-1. In series [3], the Km was determined as 4.9 µM, the Vmax (µmol min^-1mg^-1) was determined as 0.435, the kcat was found to be 0.345 s⁻¹ and the kcat/Km was 0.0704 sec^-1µM^-1.

B2: pQE70-BACE (M)R36GSFVE...QTDES432RS(His)6 (protein)
chain: MRGSFVEMVDNLRGKSGQGYYVEMTVGSPPQTLNILVDTGSSNFAVGAAPHPFLHRYYQRQLSSTYRDLRKGVYVPYTQGKWEGELGTDLVSIPHGPNVTVRANIAAITESDKFFINGSNWEGILGLAYAEIARPDDSLEPFFDSLVKQTHVPNLFSLQLCGAGFPLNQSEVLASVGGSMIIGGIDHSLYTGSLWYTPIRREWYYEVIIVRVEINGQDLKMDCKEYNYDKSIVDSGTTNLRLPKKVFEAAVKSIKAASSTEKFPDGFWLGEQLVCWQAGTTPWNIFPVISLYLMGEVTNQSFRITILPQQYLRPVEDVATSQDDCYKFAISQSSTGTVMGAVIMEGFYVVFDRARKRIGFAVSACHVHDEFRTAAVEGPFVTLDMEDCGYNIPQTDESRSHHHHHH
As for B2, in series [1], the Km amounted to 55.5 µM, the Vmax (µmol min^-1mg^-1) was 0.345, the kcat came to 0.273 s⁻¹ and the kcat/Km was 0.0049 sec^-1µM^-1. In addition, in series [3], the Km was 5.4 µM, the Vmax (µmol min^-1mg^-1) was determined as 0.4, the turnover number (kcat) was 0.317 s⁻¹ and the kcat/Km was found to be 0.0581 sec^-1µM^-1.
